Results on three molecules are retold here after patent publication US20220204640A1 (Genentech, published 2022).

In test [1] the target is T1, TAT211 polypeptide on the surface of cells (human, UniProt O95436 1-690).
T1 construct: Expressed endogenously (OVCAR-3, OVCAR4, Igrov1, P828, P701sc20) or recombinantly (293/TAT211) on the cell surface
T1 sequence: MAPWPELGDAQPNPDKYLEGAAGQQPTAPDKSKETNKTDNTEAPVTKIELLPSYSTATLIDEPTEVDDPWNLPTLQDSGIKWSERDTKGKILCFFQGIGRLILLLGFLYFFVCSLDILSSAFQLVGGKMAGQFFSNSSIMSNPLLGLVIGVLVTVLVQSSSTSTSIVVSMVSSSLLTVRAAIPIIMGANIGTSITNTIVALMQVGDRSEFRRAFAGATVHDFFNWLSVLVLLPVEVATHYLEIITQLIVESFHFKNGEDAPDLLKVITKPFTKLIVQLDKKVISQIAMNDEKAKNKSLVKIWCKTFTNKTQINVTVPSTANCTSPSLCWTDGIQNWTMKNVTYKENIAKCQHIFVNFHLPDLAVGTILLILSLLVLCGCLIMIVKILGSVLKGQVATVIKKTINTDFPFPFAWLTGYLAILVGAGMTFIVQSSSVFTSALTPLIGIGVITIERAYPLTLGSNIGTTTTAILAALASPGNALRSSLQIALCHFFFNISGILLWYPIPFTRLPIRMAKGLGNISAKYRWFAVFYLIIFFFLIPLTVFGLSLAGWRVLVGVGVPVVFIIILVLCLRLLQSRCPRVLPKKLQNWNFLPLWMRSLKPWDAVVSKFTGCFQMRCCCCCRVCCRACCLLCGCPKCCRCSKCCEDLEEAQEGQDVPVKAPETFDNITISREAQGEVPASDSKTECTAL
Briefly: Scatchard analysis on Igrov1 cells expressing TAT211; Igrov1 cells.

Test [2] has as its target T1, TAT211 polypeptide on the surface of …. The experiment in a line: Scatchard analysis on P701sc20 cells expressing TAT211; P701sc20 cells.
Test [3] shares this target. Briefly: Scatchard analysis on OVCAR4 cells expressing TAT211; OVCAR4 cells.
For test [4] the target is unchanged. Briefly: Scatchard analysis on P828 cells expressing TAT211; P828 cells.
The target is the same in test [5]. Briefly: Scatchard analysis on cells, IgG.
The target in test [6] is T2, CHO derived TAT211 extracellular domain (glycosylated, immunoadhesin / Fc fusion) (human, UniProt O95436 234-362, glycosylated (CHO)).
T2 construct: not shown: Fc part of the immunoadhesin
T2 sequence: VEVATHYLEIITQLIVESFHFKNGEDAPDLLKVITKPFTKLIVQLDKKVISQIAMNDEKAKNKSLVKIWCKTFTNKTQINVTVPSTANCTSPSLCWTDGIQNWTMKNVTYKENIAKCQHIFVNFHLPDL
The experiment in a line: surface plasmon resonance for the Fab, compared with mu10H1.

The target of test [7] is T2, CHO derived TAT211 extracellular domain …. The experiment in a line: surface plasmon resonance (Biacore), TAT211 extracellular domain immobilized. Background: SPR reads the build-up and loss of mass on a sensor chip optically.
Procedure: TAT211 extracellular domain (glycosylated) was immobilized (approximately 100-400 RU, in 10 mM Sodium Acetate pH 4.8 on a CM5 sensor chip) and the 10H1 antibody variant served as the analyte (injected at a flow rate of 30 μL/min, using a 2-fold serial dilution of 4 to 1000 nM in PBST). Each sample was analyzed with 4-minute association and 10-minute disassociation. After each injection the chip was regenerated using 10 mM Glycine pH 1.7.

B1: murine monoclonal antibody 10H1 (antibody, V domains shown)
VH: EVMLVESGGGLVRPGGSLKVSCAASGFSFSDFAMSWVRRTPDKRLEWVATIGRVASHTYYPDSMKGRFTISRDNAKNTLYLQMNSLRSDDTAIYYCVRHRGFDVGHFDFWGQGTLLTVSA
VL: DILMTQTPLSLPVSLGDQASISCRSSETLVHSNGNTYLEWYLQKLGQPPKLLIYRVSNRFSGVPDRFSGSGSGTDFTLKISRLEAEDLGVYYCFQGSHNPLTFGAGTKVEIKR
notes: Murine hybridoma IgG; also called mu10H1; murine 10H1
As usually defined, the Kd is the concentration at which binding is half-saturated. High values mean lower affinity, low ones higher affinity. B1: the dissociation constant Kd came out at 61 nM in test [1], 59 nM in test [2], 37 nM in test [3] and 36 nM in test [4].

B2: humanized anti-TAT211 antibody 10H1.11.4B (IgG) (antibody, V domains shown)
VH: EVQLVESGGGLVQPGGSLRLSCAASGFSFSDFAMSWVRQAPGKGLEWVATIGRVAFHTYYPDSMKGRFTISRDNSKNTLYLQMNSLRAEDTAVYYCARHRGFDVGHFDFWGQGTLVTVSS
VL: DIQMTQSPSSLSASVGDRVTITCRSSETLVHSSGNTYLEWYQQKPGKAPKLLIYRVSNRFSGVPSRFSGSGSGTDFTLTISSLQPEDFATYYCFQGSFNPLTFGQGTKVEIKR
For the molecule B2, in test [5], the binding result is “binds”.

B3: 10H1-graft as a Fab (Fab, V domains shown)
VH: EVQLVESGGGLVQPGGSLRLSCAASGFSFSDFAMSWVRQAPGKGLEWVATIGRVASHTYYPDSMKGRFTISRDNSKNTLYLQMNSLRAEDTAVYYCVRHRGFDVGHFDFWGQGTLVTVSS
VL: DIQMTQSPSSLSASVGDRVTITCRSSETLVHSNGNTYLEWYQQKPGKAPKLLIYRVSNRFSGVPSRFSGSGSGTDFTLTISSLQPEDFATYYCFQGSHNPLTFGQGTKVEIKR
notes: Fab expressed in E. coli from the phage display vector; also called 10H1 anti-TAT211 grafted humanized antibody
For the molecule B3, the “fold loss of affinity relative to the mu10H1 hybridoma antibody” value in test [6] was around 2 fold. The dissociation constant (Kd) in test [7] worked out at 74 nM.
